The results in this text go back to paper PMC3215729, “Rv2607 from Mycobacterium tuberculosis Is a Pyridoxine 5′-Phosphate Oxidase with Unusual Substrate Specificity” (PLoS ONE, 2011).

The data set concerns the molecule itself. Nature of the data set: native MS.

B1: Rv2607 from Mycobacterium tuberculosis H37Rv, amino-terminal 6x-histidine tag fusion protein (enzyme)
chain: MDDDAQMVAIDKDQLARMRGEYGPEKDGCGDLDFDWLDDGWLTLLRRWLNDAQRAGVSEPNAMVLATVADGKPVTRSVLCKILDESGVAFFTSYTSAKGEQLAVTPYASATFPWYQLGRQAHVQGPVSKVSTEEIFTYWSMRPRGAQLGAWASQQSRPVGSRAQLDNQLAEVTRRFADQDQIPVPPGWGGYRIAPEIVEFWQGRENRMHNRIRVANGRLERLQP
notes: also called PNPOx; pyridoxine 5'-phosphate oxidase; not shown: His6, N-terminal, kept
With B1, the “stoichiometry N” value was 2.

Broadly, the stoichiometry N is a count of units in the complex or per binding partner.
